{"source": "paper PMC6626044", "about": "“Molecular basis of egg coat cross-linking sheds light on ZP1-associated female infertility” (Nature Communications, 2019)", "key": {"[1]": {"target": "chicken ZP1 ZP-N1 domain, recombinant, wild type (chicken)", "test": "SEC; IMAC-purified protein, analytical SEC at 4 °C in 20 mM Na-HEPES pH 7.8, 150 mM NaCl (HiLoad 26/600 Superdex 75 pg or Superdex 75 Increase 10/300 GL), fractions on Coomassie-stained SDS-PAGE"}, "[2]": {"target": "chicken ZP1 ZP-N1 domain, recombinant, wild type (chicken)", "test": "non-reducing against reducing SDS-PAGE with immunoblot; conditioned medium of transfected HEK293 cells, anti-5His immunoblot; shows only covalent (disulphide-bonded) oligomers"}, "[3]": {"target": "chicken ZP4 ZP-N1 domain, 6His-tagged (chicken)", "test": "SEC; IMAC-purified protein, analytical SEC at 4 °C in 20 mM Na-HEPES pH 7.8, 150 mM NaCl (HiLoad 26/600 Superdex 75 pg or Superdex 75 Increase 10/300 GL), fractions on Coomassie-stained SDS-PAGE"}, "[4]": {"target": "chicken ZP1, full length, 6His-tagged (chicken)", "test": "non-reducing against reducing SDS-PAGE with immunoblot; conditioned medium of transfected HEK293 cells, anti-5His immunoblot; shows only covalent (disulphide-bonded) oligomers"}, "[5]": {"target": "~21 kDa N-terminal fragment of native chicken ZP1 (chicken)", "test": "non-reducing against reducing SDS-PAGE with immunoblot; SEC fractions (Sephacryl S-300 HR) of chicken egg coat solubilised by sperm protease, anti-cZP1 N-terminal fragment polyclonal; bands confirmed by MALDI-MS/MS"}, "[6]": {"target": "the molecule itself", "test": "non-reducing against reducing SDS-PAGE with immunoblot; conditioned medium of transfected HEK293 cells, anti-5His immunoblot; shows only covalent (disulphide-bonded) oligomers"}, "[7]": {"target": "the molecule itself", "test": "SEC; IMAC-purified protein, analytical SEC at 4 °C in 20 mM Na-HEPES pH 7.8, 150 mM NaCl (HiLoad 26/600 Superdex 75 pg or Superdex 75 Increase 10/300 GL), fractions on Coomassie-stained SDS-PAGE"}}}
{"molecule": "chicken ZP1 ZP-N1 domain, recombinant, wild type (domain or fragment)", "values": [{"measurement": "stoichiometry N", "setting": "[1]", "result": 2}, {"measurement": "stoichiometry N", "setting": "[2]", "result": 2}]}
{"molecule": "chicken ZP4 ZP-N1 domain, 6His-tagged (from UniProt A0A8V0ZLW5 1-148) (domain or fragment)", "values": [{"measurement": "stoichiometry N", "setting": "[3]", "result": 2}]}
{"molecule": "chicken ZP1, full length, 6His-tagged (natural protein)", "values": [{"measurement": "stoichiometry N", "setting": "[4]", "result": 2}]}
{"molecule": "~21 kDa N-terminal fragment of native chicken ZP1 (domain or fragment)", "values": [{"measurement": "stoichiometry N", "setting": "[5]", "result": 2}]}
{"molecule": "human ZP1, wild type, 6His-tagged (natural protein, UniProt P60852 26-553, looked up, human zona pellucida glycoprotein 1 (hZP1), wild type, synthetic cDNA in pHLsec3; the secreted form in the medium was analysed; also called hZP1; full-length hZP1; source: HEK293T, transiently transfected, secreted into the conditioned medium) RWLQPDPGLPGLRHSYDCGIKGMQLLVFPRPGQTLRFKVVDEFGNRFDVNNCSICYHWVTSRPQEPAVFSADYRGCHVLEKDGRFHLRVFMEAVLPNGRVDVAQDATLICPKPDPSRTLDSQLAPPAMFSVSTPQTLSFLPTSGHTSQGSGHAFPSPLDPGHSSVHPTPALPSPGPGPTLATLAQPHWGTLEHWDVNKRDYIGTHLSQEQCQVASGHLPCIVRRTSKEACQQAGCCYDNTREVPCYYGNTATVQCFRDGYFVLVVSQEMALTHRITLANIHLAYAPTSCSPTQHTEAFVVFYFPLTHCGTTMQVAGDQLIYENWLVSGIHIQKGPQGSITRDSTFQLHVRCVFNASDFLPIQASIFPPPSPAPMTQPGPLRLELRIAKDETFSSYYGEDDYPIVRLLREPVHVEVRLLQRTDPNLVLLLHQCWGAPSANPFQQPQWPILSDGCPFKGDSYRTQMVALDGATPFQSHYQRFTVATFALLDSGSQRALRGLVYLFCSTSACHTSGLETCSTACSTGTTRQ", "values": [{"measurement": "stoichiometry N", "setting": "[6]", "result": 2}]}
{"molecule": "mouse ZP1 ZP-N1 domain, 6His-tagged, wild type (domain or fragment, UniProt Q62005 21-141, looked up, signal peptide in the construct; mouse ZP1 ZP-N1 domain, M1-A141, in pHLsec3; Heterogeneous glycosylation at N49 and N68 gives two bands on SDS-PAGE; also called mZP1-N1; mZP1-N1_(M1-A141); source: HEK293, transiently transfected; conditioned medium, and purified (IMAC, SEC); not shown: 6His, C-terminal, kept) QRLHLEPGFEYSYDCGVRGMQLLVFPRPNQTVQFKVLDEFGNRFEVNNCSICYHWVTSEAQEHTVFSADYKGCHVLEKDGRFHLRVFIQAVLPNGRVDIAQDVTLICPKPDHTVTPDPYLA", "values": [{"measurement": "stoichiometry N", "setting": "[7]", "result": 2}]}
{"molecule": "human ZP1 ZP-N1 domain, H102 mutant (domain or fragment) RWLQPDPGLPGLRHSYDCGIKGMQLLVFPRPGQTLRFKVVDEFGNRFDVNNCSICYHWVTSRPQEPAVFSADYRGCAVLEKDGRFHLRVFMEAVLPNGRVDVAQDATLICPKPDPSRTLDSQLA", "values": [{"measurement": "stoichiometry N", "setting": "[6]", "result": 2}]}
{"molecule": "human ZP1 ZP-N1 domain, His-tagged, wild type (domain or fragment, UniProt P60852 26-149, looked up, signal peptide in the construct; human ZP1 ZP-N1 domain, M1-A149; also called hZP1-N1; hZP1_(M1-A149); source: HEK293T, transiently transfected; conditioned medium, and purified (IMAC, SEC); not shown: His, C-terminal, kept) RWLQPDPGLPGLRHSYDCGIKGMQLLVFPRPGQTLRFKVVDEFGNRFDVNNCSICYHWVTSRPQEPAVFSADYRGCHVLEKDGRFHLRVFMEAVLPNGRVDVAQDATLICPKPDPSRTLDSQLA", "values": [{"measurement": "stoichiometry N", "setting": "[6]", "result": 2}]}
{"molecule": "human ZP1 ZP-N1 domain, H82 mutant (domain or fragment) RWLQPDPGLPGLRHSYDCGIKGMQLLVFPRPGQTLRFKVVDEFGNRFDVNNCSICYAWVTSRPQEPAVFSADYRGCHVLEKDGRFHLRVFMEAVLPNGRVDVAQDATLICPKPDPSRTLDSQLA", "values": [{"measurement": "stoichiometry N", "setting": "[6]", "result": 2}]}
